In this test the target is soluble ectodomain protein of human CD26 (hCD26) (human), P27487. Briefly: crystal structure. The note with it: remark: other sources report otherwise.

B1: soluble ectodomain protein of human CD26 (hCD26), P27487 29-766 (receptor)
chain: NKGTDDATADSRKTYTLTDYLKNTYRLKLYSLRWISDHEYLYKQENNILVFNAEYGNSSVFLENSTFDEFGHSINDYSISPDGQFILLEYNYVKQWRHSYTASYDIYDLNKRQLITEERIPNNTQWVTWSPVGHKLAYVWNNDIYVKIEPNLPSYRITWTGKEDIIYNGITDWVYEEEVFSAYSALWWSPNGTFLAYAQFNDTEVPLIEYSFYSDESLQYPKTVRVPYPKAGAVNPTVKFFVVNTDSLSSVTNATSIQITAPASMLIGDHYLCDVTWATQERISLQWLRRIQNYSVMDICDYDESSGRWNCLVARQHIEMSTTGWVGRFRPSEPHFTLDGNSFYKIISNEEGYRHICYFQIDKKDCTFITKGTWEVIGIEALTSDYLYYISNEYKGMPGGRNLYKIQLSDYTKVTCLSCELNPERCQYYSVSFSKEAKYYQLRCSGPGLPLYTLHSSVNDKGLRVLEDNSALDKMLQNVQMPSKKLDFIILNETKFWYQMILPPHFDKSKKYPLLLDVYAGPCSQKADTVFRLNWATYLASTENIIVASFDGRGSGYQGDKIMHAINRRLGTFEVEDQIEAARQFSKMGFVDNKRIAIWGWSYGGYVTSMVLGSGSGVFKCGIAVAPVSRWEYYDSVYTERYMGLPTPEDNLDHYRNSTVMSRAENFKQVEYLLIHGTADDNVHFQQSAQISKALVDVGVDFQAMWYTDEDHGIASSTAHQHIYTHMSHFIKQCFSLP
The stoichiometry N is a count of units in the complex or per binding partner. B1 yielded a stoichiometry N of 2.

For the origin of these results see paper PMC7104937.
